# Test results published in US20260022171A1 (23ANDME, published 2026).
# Changes are numbered by the printed parent chain.
# T1: hu-CD200R1-iso4-Ref ECD (human)
# T1 chain: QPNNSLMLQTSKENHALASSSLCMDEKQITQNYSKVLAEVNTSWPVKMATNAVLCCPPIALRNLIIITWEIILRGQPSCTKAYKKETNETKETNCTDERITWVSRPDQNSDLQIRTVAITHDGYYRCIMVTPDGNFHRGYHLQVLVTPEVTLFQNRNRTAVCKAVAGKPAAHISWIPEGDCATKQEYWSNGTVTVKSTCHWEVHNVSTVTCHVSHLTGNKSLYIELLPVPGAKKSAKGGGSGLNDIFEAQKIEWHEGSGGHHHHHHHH
# T2: hu-CD200R1-iso4-Alt ECD (human)
# T2 construct: also called isoform 4 alt
# T2 chain: T1 chain with K84R, T116P, H172Q
# T3: hu-CD200R1-iso1-Ref ECD (human)
# T3 chain: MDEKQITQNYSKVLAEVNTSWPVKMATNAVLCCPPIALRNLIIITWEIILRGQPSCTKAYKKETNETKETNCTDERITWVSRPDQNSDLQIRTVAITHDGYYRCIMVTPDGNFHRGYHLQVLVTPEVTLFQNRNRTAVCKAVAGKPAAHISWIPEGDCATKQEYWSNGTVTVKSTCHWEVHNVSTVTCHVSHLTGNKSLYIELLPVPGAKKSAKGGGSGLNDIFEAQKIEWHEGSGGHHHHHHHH
# T4: hu-CD200R1-iso1-Alt ECD (human)
# T4 chain: T3 chain with K61R, T93P, H149Q
# B1: h10F6.V1 (antibody, IgG1, V domains shown)
# VH: EVQLQESGPGLVKPSETLSLTCTVSGFSLTNYRVSWVRQPPGKGLEWLGVMYAGGGTNYNSVFKSRLTISKDNSKNQVSLKLSSVTAADTAVYYCARERPLTGVMDNWGQGTLVTVSS
# VL: DIVLTQSPDSLAVSLGERATINCRASESVDYSGNSFMHWFQQKPGQPPKLLIYRASNLESGIPDRFSGSGSRTDFTLTISSLQAEDVAVYYCHQSNWDPPTFGGGTKVEIKR
# notes: differs by 3 residues in the heavy chain CDRs and 1 in the light chain CDRs; also called surrogate antibody
# B2: h10F6.V3 (antibody, IgG1, V domains shown)
# VH: B1 VH
# VL: B1 VL with W97E
# notes: IgG1 variant of h10F6
# B3: h10F6.V4 (antibody, IgG1, V domains shown)
# VH: B1 VH with R33W, V50T, Y52W, V104P, N107Y
# VL: B1 VL
# notes: IgG1 variant of h10F6
# B4: h10F6.V2 (antibody, IgG1, V domains shown)
# VH: B1 VH with R33W, V50T, Y52W, V104P, N107Y
# VL: B1 VL with W97E
# notes: IgG1 variant of h10F6
# B5: cyno-CD200R1 ECD (receptor)
# chain: AAQSNNSLMLQTSKENHTLASNSLCMDEKQITQNHSKVLAEVNISWPVQMARNAVLCCPPIEFRNLIVITWEIILRGQPSCTKTYRKDTNETKETNCTDERITWVSTPDQNSDLQIHPVAITHDGYYRCIMATPDGNFHRGYHLQVLVTPEVTLFESRNRTAVCKAVAGKPAAQISWIPAGDCAPTEQEYWGNGTVTVKSTCHWEGHNVSTVTCHVSHLTGNKSLYIELLPVPGAKKSAKLGGGSGLNDIFEAQKIEWHEGSGGHHHHHHHH
# notes: also called cynomolgus monkey CD200R1; MfCD200R1 (recombinant)
# B6: h22.1 (humanized 22.1 IgG) (antibody, V domains shown)
# VH: EVQLVQSGAEVKKPGASVKVSCKASGYTFTSYVMFWVRQAPGQRLEWIGYINPYNDDTKYNEKFKGRATLTSDKSASTAYMELSSLRSEDTAVYYCAREDYYGSRFVYWGQGTLVTVSS
# VL: DIQLTQSPSSLSASVGDRVTITCRASKSVSTSGYSYMHWYQQKPGKPPKLLIYLASNLESGVPSRFSGSGSGTDFTLTISSLQPEDFATYYCQHNRELLTFGGGTKVEIKR
# Tests used:
# [1] = target: B5; experiment: Biacore, binding to MfCD200R1
# [2] = target: B5; experiment: SPR binding affinity to recombinant MfCD200R1
# [3] = target: B5; experiment: blocking ELISA, MfCD200R1 to immobilized MfCD200
# Method: (§1) Binding was evaluated by incubating with HRP-streptavidin and colorimetric substrate, followed by monitoring the OD450 in each well.
# [4] = target: T1, hu-CD200R1-iso4-Ref ECD; experiment: SPR Biacore 8K 37C; antibody on Protein A chip, CD200R1 analyte;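 further: sensorgrams corrected by subtracting reference and buffer signals, then analysed with Biacore 8K Evaluation Software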
# Method: (§2) The sensorgram was recorded and subject to reference and buffer subtraction before evaluation by BIACORE®8K Evaluation Software (version 1.1.1.7442). Association rates (kₒ₀) and dissociation rates (koff) were calculated using a simple one-to-one Langmuir binding model.
# [5] = target: T2, hu-CD200R1-iso4-Alt ECD; experiment: as above
# Method: as §2
# [6] = target: B5; experiment: as above
# Method: as §2
# [7] = target: T1, hu-CD200R1-iso4-Ref ECD; experiment: blocking ELISA; biotin-hu-CD200R1 + antibody dilutions on coated hu-CD200-Fc
# Method: (§3) After removing the coating solution, unspecific binding was blocked with PBS containing 1% bovine serum albumin (BSA) and incubation at room temperature for one hour. Plates were then washed five times in PBS with 0.05% TWEEN®-20 (wash buffer).
# [8] = target: B5; experiment: blocking ELISA; biotin-cyno-CD200R1 + antibody dilutions on coated cyno-CD200-Fc
# [9] = target: T5, cyno-CD200-Fc (cynomolgus monkey); experiment: ELISA: biotinylated MfCD200R1 (0.12 ug/ml) on plate-immobilised Fc-tagged MfCD200, HRP-streptavidin, OD450
# T5 construct: also called MfCD200-Fc; Fc-tagged MfCD200
# T5 sequence (chain, as listed by the source limits assumed): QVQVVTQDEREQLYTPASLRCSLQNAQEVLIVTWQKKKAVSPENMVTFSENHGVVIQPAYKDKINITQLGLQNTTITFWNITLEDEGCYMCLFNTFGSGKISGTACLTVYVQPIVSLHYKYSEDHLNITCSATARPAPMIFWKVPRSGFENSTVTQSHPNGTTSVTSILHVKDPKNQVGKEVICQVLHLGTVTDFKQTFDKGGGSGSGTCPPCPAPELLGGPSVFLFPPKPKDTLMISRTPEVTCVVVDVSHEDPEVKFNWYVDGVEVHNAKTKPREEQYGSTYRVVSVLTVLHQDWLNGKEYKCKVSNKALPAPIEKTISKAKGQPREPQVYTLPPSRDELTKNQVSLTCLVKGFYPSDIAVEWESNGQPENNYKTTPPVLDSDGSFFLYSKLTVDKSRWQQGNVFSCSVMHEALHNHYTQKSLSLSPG
# Method: as §1
# [10] = target: T1, hu-CD200R1-iso4-Ref ECD; experiment: SPR Biacore 8K 37C; biotin-CD200R1 captured, antibody analyte
# Method: (§4) For kinetics measurements, 3 nM biotinylated human CD200R1. […] The sensorgram was recorded and subject to reference and buffer subtraction before evaluating by BIACORE® 8K Evaluation Software (version 1.1.1.7442).
# (§5) Association rates (kₒₙ) and dissociation rates (koff) were calculated using a simple one-to-one Langmuir binding model. The equilibrium dissociation constant (KD) was calculated as the ratio of koff/kₒₙ.
# [11] = target: T3, hu-CD200R1-iso1-Ref ECD; experiment: as above
# Method: as §4, §5
# [12] = target: T2, hu-CD200R1-iso4-Alt ECD; experiment: as above
# Method: as §4, §5
# [13] = target: T4, hu-CD200R1-iso1-Alt ECD; experiment: as above
# Method: as §4, §5
# [14] = target: T1, hu-CD200R1-iso4-Ref ECD; experiment: blocking ELISA; biotin-CD200R1 + antibody dilutions on coated hu-CD200-Fc
# Method: as §3
# [15] = target: T3, hu-CD200R1-iso1-Ref ECD; experiment: as above
# Method: as §3
# [16] = target: T2, hu-CD200R1-iso4-Alt ECD; experiment: as above
# Method: as §3
# [17] = target: T4, hu-CD200R1-iso1-Alt ECD; experiment: as above
# Method: as §3
Kd [4] [nM],koff [4] [s⁻¹],kon [4] [M⁻¹ s⁻¹],Kd [6] [nM],koff [6] [s⁻¹],kon [6] [M⁻¹ s⁻¹],IC50 [7] [nM],IC50 [8] [nM],Binder,Kd [5] [nM],koff [5] [s⁻¹],kon [5] [M⁻¹ s⁻¹],also measured
0.716,0.000964,1.35e+06,10.5,0.00457,436000,0.58,2.44,B1,0.814,0.00117,1.44e+06,Kd [1]: 2.63 nM; Kd [2]: 2.63 nM; IC50 [3]: 2.45 nM
0.817,0.00153,1.88e+06,60.7,0.0195,322000,0.56,11.4,B2,0.935,0.00191,2.04e+06,
8.93,0.00336,377000,5.87,0.00113,193000,10.9,2.15,B3,9.99,0.00387,388000,
6.04,0.00367,607000,16.3,0.00351,216000,4.79,4.25,B4,6.68,0.00425,635000,
,,,,,,,,B5,,,,binding result [9]: binds
,,,,,,,,B6,,,,Kd [10]: 1.92 nM; koff [10]: 0.00115 s⁻¹; kon [10]: 598000 M⁻¹ s⁻¹; Kd [11]: 0.501 nM; koff [11]: 0.00151 s⁻¹; kon [11]: 3.02e+06 M⁻¹ s⁻¹; Kd [12]: 1.92 nM; koff [12]: 0.00116 s⁻¹; kon [12]: 604000 M⁻¹ s⁻¹; Kd [13]: 0.535 nM; koff [13]: 0.00166 s⁻¹; kon [13]: 3.11e+06 M⁻¹ s⁻¹; IC50 [14]: 5.32 nM; IC50 [15]: 5.86 nM; IC50 [16]: 4.59 nM; IC50 [17]: 7.45 nM
